B1: CLPTM1 (parent)
chain: MNLHVYISEHEHFTDFNATSALFW
B2: VDR (parent)
chain: LIKFQVGLKKLNLHEEEHVLLMAI

Variants of: B1
Assay: protein stability index of a GFP-peptide fusion (GPS, HEK-293T) (PSI 1-6); higher = more stable
Conditions: c terminus: a fixed tail appended
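Further: lentivirally expressed fusions sorted by FACS into six bins by GFP to DsRed ratio, PSI derived from sequencing read proportions per bin multiplied by bin number.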

Variant	protein stability index
MNLHVYISEHEHFVDFNATSALFW [T14V]	1.81
MNLHVYISEHEHFMDFNATSALFW [T14M]	4.02
MNLHVYISEHEHFSDFNATSALFW [T14S]	3.26
MNLHVYISEHEHFPDFNATSALFW [T14P]	4.65
MNLHVYISEHEHFEDFNATSALFW [T14E]	3.86
MNLHVYISEHEHFYDFNATSALFW [T14Y]	1.62
MNLHVYISEHEHFCDFNATSALFW [T14C]	3.04
MNLHVYISEHEHFHDFNATSALFW [T14H]	4.34
MNLHVYISEHEHFTDFNADSALFW [T19D]	2.48
MNLHVYISEHEHFTDFNAYSALFW [T19Y]	2.08
MNLHVYISEHEHFTDFNAHSALFW [T19H]	2.99
MNLHVYISEHEHFTDFNAMSALFW [T19M]	1.52
MNLHVYISEHEHFTDFNAVSALFW [T19V]	1.89
MNLKVYISEHEHFTDFNATSALFW [H4K]	1.99
MNLYVYISEHEHFTDFNATSALFW [H4Y]	4.32
MNLEVYISEHEHFTDFNATSALFW [H4E]	1.45
MNLRVYISEHEHFTDFNATSALFW [H4R]	5.47
MNLHVYISEHEPFTDFNATSALFW [H12P]	2.64
MNLHVYISEHEMFTDFNATSALFW [H12M]	2.39
MNLHVYISEHEWFTDFNATSALFW [H12W]	3.67
MNLHVYISEHESFTDFNATSALFW [H12S]	1.83
MNLHVYISEHELFTDFNATSALFW [H12L]	1.41
MNLHVYISEHEHFTDFNATSALFL [W24L]	4.15
MNLHVYISEHEHFTDFNATSALFQ [W24Q]	2.2
MNLHVYISEHEHFTDFNATSALFS [W24S]	3.64
MNLHVYISEHEHFTDFNATSALFP [W24P]	2.76

Variant	protein stability index
MNLHVYISEHEHFTDFNATSALFH [W24H]	1.75
MNLHVYISEHEHFTDFNATSALFR [W24R]	2.96
MNLHVCISEHEHFTDFNATSALFW [Y6C]	2.52
MNLHVIISEHEHFTDFNATSALFW [Y6I]	2.61
MNLHVPISEHEHFTDFNATSALFW [Y6P]	1.49
MNLHVRISEHEHFTDFNATSALFW [Y6R]	3.35
MNLHVQISEHEHFTDFNATSALFW [Y6Q]	2.4
MNLHVLISEHEHFTDFNATSALFW [Y6L]	3.45
MNLHVNISEHEHFTDFNATSALFW [Y6N]	2.22
MNLHVHISEHEHFTDFNATSALFW [Y6H]	2.59
MNLHVEISEHEHFTDFNATSALFW [Y6E]	2.93
MNLHVYLSEHEHFTDFNATSALFW [I7L]	2.45
MNLHVYGSEHEHFTDFNATSALFW [I7G]	2.92
MNLHVYYSEHEHFTDFNATSALFW [I7Y]	4.01
MNLHVYHSEHEHFTDFNATSALFW [I7H]	1.79
MNLHVYRSEHEHFTDFNATSALFW [I7R]	3.14
MNLHVYMSEHEHFTDFNATSALFW [I7M]	3.09
MNLHVYNSEHEHFTDFNATSALFW [I7N]	3.55
MNLHVYASEHEHFTDFNATSALFW [I7A]	2.6
MNLHVYSSEHEHFTDFNATSALFW [I7S]	2.45
MNLHVYISEHEHFTKFNATSALFW [D15K]	2.71
MNLHVYISEHEHFTAFNATSALFW [D15A]	3.71
MNLHVYISEHEHFTYFNATSALFW [D15Y]	2.52
MNLHVYISEHEHFTCFNATSALFW [D15C]	2.43
MNLHVYISEHEHFTQFNATSALFW [D15Q]	2.3
TNLHVYISEHEHFTDFNATSALFW [M1T]	2.97

Variant	protein stability index
ENLHVYISEHEHFTDFNATSALFW [M1E]	1.33
KNLHVYISEHEHFTDFNATSALFW [M1K]	2.95
YNLHVYISEHEHFTDFNATSALFW [M1Y]	2.55
QNLHVYISEHEHFTDFNATSALFW [M1Q]	2.58
RNLHVYISEHEHFTDFNATSALFW [M1R]	2.51
INLHVYISEHEHFTDFNATSALFW [M1I]	3.18
MNLHVYIHEHEHFTDFNATSALFW [S8H]	3.35
MNLHVYIPEHEHFTDFNATSALFW [S8P]	3.32
MNLHVYIDEHEHFTDFNATSALFW [S8D]	3.18
MNLHVYILEHEHFTDFNATSALFW [S8L]	2.96
MNLHVYIYEHEHFTDFNATSALFW [S8Y]	2.98
MNLHVYISEHEHFTDFPATSALFW [N17P]	3.96
MNLHVYISEHEHFTDFFATSALFW [N17F]	2.72
MNLHVYISEHEHFTDFTATSALFW [N17T]	3.19
MNLHVYISEHEHFTDFVATSALFW [N17V]	2.75
MNLHVYISEHEHFTDFGATSALFW [N17G]	2.38
MNLHVYISEHEHFTDFHATSALFW [N17H]	2.13
MNLHVYISEHEHFTDFSATSALFW [N17S]	2.44
MNLHVYISEHEHFTDFCATSALFW [N17C]	2.72
MNLHVYISEHEHQTDFNATSALFW [F13Q]	2.2
MNLHVYISEHEHATDFNATSALFW [F13A]	3.39
MNLHVYISEHEHRTDFNATSALFW [F13R]	2.5
MNLHVYISEHEHETDFNATSALFW [F13E]	3.52
MNLHVYISEHEHCTDFNATSALFW [F13C]	2.51
MNLHVYISEHEHWTDFNATSALFW [F13W]	4.9
MNLHVYISEHEHFTDFNATEALFW [S20E]	2.37

Variant	protein stability index
MNLHVYISEHEHFTDFNATAALFW [S20A]	4.95
MNLHVYISEHEHFTDFNATFALFW [S20F]	2.51
MNLHVYISEHEHFTDFNATYALFW [S20Y]	3.45
MNLHVYISEHEHFTDFNATDALFW [S20D]	4.08
MNLHVYISEHEHFTDFNATMALFW [S20M]	2.64
MNLHVYISEHEHFTDFNATHALFW [S20H]	4.53
MNLHVYISEHEHFTDFNLTSALFW [A18L]	2.01
MNLHVYISEHEHFTDFNSTSALFW [A18S]	2.46
MNLHVYISEHEHFTDFNVTSALFW [A18V]	2.92
MNLHVYISEHEHFTDFNRTSALFW [A18R]	3.55
MNLHVYISEHEHFTDFNWTSALFW [A18W]	2.76
MNLHVYISEHEHFTDFNKTSALFW [A18K]	4.8
MNLHVYISEHEHFTDFNHTSALFW [A18H]	3.29
MNLHVYISEHEHFTDFNATSALNW [F23N]	2.46
MNLHVYISEHEHFTDFNATSALDW [F23D]	3.62
MNLHVYISEHEHFTDFNATSALIW [F23I]	3.19
MNLHVYISEHEHFTDFNATSALPW [F23P]	2.49
MNLHVYISEHEHFTDFNATSALLW [F23L]	5.95
MNLHVYISMHEHFTDFNATSALFW [E9M]	3.76
MNLHVYISQHEHFTDFNATSALFW [E9Q]	2.96
MNLHVYISPHEHFTDFNATSALFW [E9P]	1.5
MNLHVYISLHEHFTDFNATSALFW [E9L]	1.96
MNLHVYISAHEHFTDFNATSALFW [E9A]	2.82
MNLHVYISESEHFTDFNATSALFW [H10S]	2.59
MNLHVYISEIEHFTDFNATSALFW [H10I]	1.28
MNLHVYISECEHFTDFNATSALFW [H10C]	2.77

Variant	protein stability index
MNLHVYISEGEHFTDFNATSALFW [H10G]	2.58
MNLHVYISEEEHFTDFNATSALFW [H10E]	2.77
MNLHVYISEVEHFTDFNATSALFW [H10V]	1.99
MNLHVYISEDEHFTDFNATSALFW [H10D]	2.41
MNLHVYISEHEHFTDFNATSASFW [L22S]	1.97
MNLHVYISEHEHFTDFNATSAGFW [L22G]	4
MNLHVYISEHEHFTDFNATSACFW [L22C]	4.78
MNLHVYISEHEHFTDFNATSAQFW [L22Q]	3.16
MMLHVYISEHEHFTDFNATSALFW [N2M]	2.77
MDLHVYISEHEHFTDFNATSALFW [N2D]	1.53
MGLHVYISEHEHFTDFNATSALFW [N2G]	2.73
MQLHVYISEHEHFTDFNATSALFW [N2Q]	1
MVLHVYISEHEHFTDFNATSALFW [N2V]	3.88
MYLHVYISEHEHFTDFNATSALFW [N2Y]	2.55
MPLHVYISEHEHFTDFNATSALFW [N2P]	1.55
MLLHVYISEHEHFTDFNATSALFW [N2L]	2.57
MSLHVYISEHEHFTDFNATSALFW [N2S]	4.89
MNLHVYISEHYHFTDFNATSALFW [E11Y]	3.67
MNLHVYISEHTHFTDFNATSALFW [E11T]	2.47
MNLHVYISEHAHFTDFNATSALFW [E11A]	1.98
MNLHVYISEHMHFTDFNATSALFW [E11M]	3.46
MNLHVYISEHVHFTDFNATSALFW [E11V]	4.02
MNLHVYISEHFHFTDFNATSALFW [E11F]	3.56
MNLHVYISEHDHFTDFNATSALFW [E11D]	2.39
MNEHVYISEHEHFTDFNATSALFW [L3E]	2.62
MNCHVYISEHEHFTDFNATSALFW [L3C]	1.94

Variant	protein stability index
MNDHVYISEHEHFTDFNATSALFW [L3D]	2.44
MNFHVYISEHEHFTDFNATSALFW [L3F]	2.7
MNIHVYISEHEHFTDFNATSALFW [L3I]	3.08
MNTHVYISEHEHFTDFNATSALFW [L3T]	1.47
MNKHVYISEHEHFTDFNATSALFW [L3K]	1.9
MNWHVYISEHEHFTDFNATSALFW [L3W]	1.98
MNPHVYISEHEHFTDFNATSALFW [L3P]	1.52
MNLHVYISEHEHFTDNNATSALFW [F16N]	2.56
MNLHVYISEHEHFTDINATSALFW [F16I]	1.71
MNLHVYISEHEHFTDSNATSALFW [F16S]	2.19
MNLHVYISEHEHFTDRNATSALFW [F16R]	1.62
MNLHVYISEHEHFTDKNATSALFW [F16K]	2.96
MNLHEYISEHEHFTDFNATSALFW [V5E]	1.34
MNLHDYISEHEHFTDFNATSALFW [V5D]	2.1
MNLHTYISEHEHFTDFNATSALFW [V5T]	1.76
MNLHIYISEHEHFTDFNATSALFW [V5I]	3.89
MNLHNYISEHEHFTDFNATSALFW [V5N]	1.39
MNLHVYISEHEHFTDFNATSILFW [A21I]	2.59
MNLHVYISEHEHFTDFNATSELFW [A21E]	2.62
MNLHVYISEHEHFTDFNATSFLFW [A21F]	1.95
MNLHVYISEHEHFTDFNATSHLFW [A21H]	2.09

Variants of: B2
Assay: as above
Conditions: c terminus: a fixed tail appended

Variant	protein stability index
LIWFQVGLKKLNLHEEEHVLLMAI [K3W]	2.91
LIQFQVGLKKLNLHEEEHVLLMAI [K3Q]	1.21
LIPFQVGLKKLNLHEEEHVLLMAI [K3P]	1.89
LITFQVGLKKLNLHEEEHVLLMAI [K3T]	2.97
LIDFQVGLKKLNLHEEEHVLLMAI [K3D]	2.21
LIGFQVGLKKLNLHEEEHVLLMAI [K3G]	3.98
LYKFQVGLKKLNLHEEEHVLLMAI [I2Y]	2.93
LHKFQVGLKKLNLHEEEHVLLMAI [I2H]	1.87
LNKFQVGLKKLNLHEEEHVLLMAI [I2N]	2.31
LMKFQVGLKKLNLHEEEHVLLMAI [I2M]	3.15
LPKFQVGLKKLNLHEEEHVLLMAI [I2P]	2.73
LFKFQVGLKKLNLHEEEHVLLMAI [I2F]	2.27
LAKFQVGLKKLNLHEEEHVLLMAI [I2A]	3.06
LLKFQVGLKKLNLHEEEHVLLMAI [I2L]	3.02
LTKFQVGLKKLNLHEEEHVLLMAI [I2T]	2.77
LRKFQVGLKKLNLHEEEHVLLMAI [I2R]	4.27
LVKFQVGLKKLNLHEEEHVLLMAI [I2V]	3
LQKFQVGLKKLNLHEEEHVLLMAI [I2Q]	3.14
LDKFQVGLKKLNLHEEEHVLLMAI [I2D]	2.05

Variant	protein stability index
SIKFQVGLKKLNLHEEEHVLLMAI [L1S]	3.27
QIKFQVGLKKLNLHEEEHVLLMAI [L1Q]	2.25
IIKFQVGLKKLNLHEEEHVLLMAI [L1I]	3.18
NIKFQVGLKKLNLHEEEHVLLMAI [L1N]	2.01
EIKFQVGLKKLNLHEEEHVLLMAI [L1E]	1.56
VIKFQVGLKKLNLHEEEHVLLMAI [L1V]	2.24
FIKFQVGLKKLNLHEEEHVLLMAI [L1F]	2.01
MIKFQVGLKKLNLHEEEHVLLMAI [L1M]	3.33
DIKFQVGLKKLNLHEEEHVLLMAI [L1D]	2.9
HIKFQVGLKKLNLHEEEHVLLMAI [L1H]	2.73
LIKEQVGLKKLNLHEEEHVLLMAI [F4E]	2.15
LIKKQVGLKKLNLHEEEHVLLMAI [F4K]	3.04
LIKAQVGLKKLNLHEEEHVLLMAI [F4A]	2.1
LIKCQVGLKKLNLHEEEHVLLMAI [F4C]	3
LIKDQVGLKKLNLHEEEHVLLMAI [F4D]	3.17
LIKLQVGLKKLNLHEEEHVLLMAI [F4L]	4.2
LIKIQVGLKKLNLHEEEHVLLMAI [F4I]	3.75
LIKHQVGLKKLNLHEEEHVLLMAI [F4H]	1.91

Source: the supplement of paper PMC10567573
